Legend:
[1] = target: T1, cell permeable human non-Casp1 cleavable Sirt1 polypeptide (NC-Sirt1)
T1 chain: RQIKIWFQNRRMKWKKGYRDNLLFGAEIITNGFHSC

[2] = target: T2, sirtuin 1 (human Sirt1, endogenous in human aortic endothelial cells), Q96EB6
T2 chain: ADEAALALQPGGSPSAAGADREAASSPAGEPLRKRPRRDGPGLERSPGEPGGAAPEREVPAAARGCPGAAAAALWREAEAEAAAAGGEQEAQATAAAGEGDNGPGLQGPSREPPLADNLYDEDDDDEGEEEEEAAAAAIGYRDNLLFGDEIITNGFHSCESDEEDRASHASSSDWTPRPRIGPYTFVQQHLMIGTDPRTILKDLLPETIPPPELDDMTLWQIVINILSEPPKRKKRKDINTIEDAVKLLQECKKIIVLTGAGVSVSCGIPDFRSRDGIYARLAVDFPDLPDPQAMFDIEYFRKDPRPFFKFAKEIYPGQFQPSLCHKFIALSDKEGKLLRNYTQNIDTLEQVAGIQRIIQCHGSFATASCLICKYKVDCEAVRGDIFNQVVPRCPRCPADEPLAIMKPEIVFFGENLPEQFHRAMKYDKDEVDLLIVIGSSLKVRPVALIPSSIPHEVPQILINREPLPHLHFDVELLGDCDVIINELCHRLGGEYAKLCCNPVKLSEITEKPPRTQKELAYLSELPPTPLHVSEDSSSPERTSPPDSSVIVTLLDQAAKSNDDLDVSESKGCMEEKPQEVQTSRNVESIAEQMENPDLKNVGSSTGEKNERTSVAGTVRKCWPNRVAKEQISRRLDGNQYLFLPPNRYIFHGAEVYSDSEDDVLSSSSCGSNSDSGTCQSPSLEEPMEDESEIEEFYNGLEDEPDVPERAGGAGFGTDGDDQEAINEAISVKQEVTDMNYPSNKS

B1: caspase-1 (human, endogenous in human aortic endothelial cells) (protein)
chain: NPAMPTSSGSEGNVKLCSLEEAQRIWKQKSAEIYPIMDKSSRTRLALIICNEEFDSIPRRTGAEVDITGMTMLLQNLGYSVDVKKNLTASDMTTELEAFAHRPEHKTSDSTFLVFMSHGIREGICGKKHSEQVPDILQLNAIFNMLNTKNCPSLKDKPKVIIIQACRGDSPGVVWFKDSVGVSGNLSLPTTEEFEDDAIKKAHIEKDFIAFCSSTPDNVSWRHPTMGSVFIGRLIEHMQEYACSCDVEEIFRKVRFSFEQPDGRAQMPTTERVTLTRCFYLFPGH
cleaved-Sirt1 expression by Western blot with anti-Sirt1 antibody in oxLDL-treated HAECs [1]: NC-Sirt1 dose-dependently decreases the cleavage of Sirt1 induced by oxLDL
cleaved-Sirt1 expression by Western blot in HAECs treated with oxLDL [2]: oxLDL induced the expression of cleaved-Sirt1 by 2.4-folds in HAECs

From patent publication US20180015152
